# Test results from patent publication EP4644419A1 (Hangzhou Zhongmeihuadong Pharmaceutical Co., Ltd., dated 2025).
# Where a chain is given by its changes, count along the chain named.
# T1: monkey antigen protein (monkey CD112R, Uniprot ID: A0A2K5WVV8) (monkey, UniProt A0A2K5WVV8 41-171)
# T1 sequence: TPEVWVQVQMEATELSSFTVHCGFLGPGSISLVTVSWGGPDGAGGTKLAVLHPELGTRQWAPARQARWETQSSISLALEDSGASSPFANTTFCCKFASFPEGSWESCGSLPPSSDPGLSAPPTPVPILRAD
# T2: human CD112R on antigen-specific CD8+ T cells (human, UniProt Q6DKI7 1-326)
# T2 sequence (looked up): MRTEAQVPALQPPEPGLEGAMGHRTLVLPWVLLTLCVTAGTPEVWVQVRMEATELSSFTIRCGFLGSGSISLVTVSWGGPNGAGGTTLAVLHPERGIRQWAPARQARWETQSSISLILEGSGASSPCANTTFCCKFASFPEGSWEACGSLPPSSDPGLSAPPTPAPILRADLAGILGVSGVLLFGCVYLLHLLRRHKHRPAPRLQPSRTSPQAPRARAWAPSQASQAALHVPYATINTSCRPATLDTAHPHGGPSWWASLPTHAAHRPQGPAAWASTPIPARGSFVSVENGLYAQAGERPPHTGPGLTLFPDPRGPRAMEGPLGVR
# T3: human CD112R antigen protein huCD112R-His (Acro Biosysterm, PVG-H52H4) (human, UniProt Q6DKI7 41-171)
# T3 construct: purchased; also called human antigen protein; not shown: His tag
# T3 sequence (looked up): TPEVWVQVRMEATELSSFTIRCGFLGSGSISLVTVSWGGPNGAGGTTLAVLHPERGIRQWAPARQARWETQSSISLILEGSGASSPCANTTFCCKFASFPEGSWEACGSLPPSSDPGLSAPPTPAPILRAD
# T4: human CD112R on GS-J2C/CD112R effector cells (human, UniProt Q6DKI7 1-326)
# T4 sequence (looked up): T2 sequence (looked up)
# B1: C12 (antibody, human IgG1, kappa, V domains shown)
# VH: EVQLVASGGGLVKPGGSLKLSCAASGFTFSDYYMYWVRQTPEKRLEWVATISDGGGYTYYPDSVKGRFTISRDNDRNSLYLQMSSLKSEDTAMYYCGREDLWGQGTSVTVSS
# VL: DIQMTQSPSSLSASLGERVSLTCRASQDIGSSLNWLQQEPDGTVKRLIYATSRLDSGVPKRFSGSRSGSDYSLTISSLESEDFVDYYCLQYASFPYTFGGGTKLEIKR
# B2: C19 (antibody, human IgG1, kappa, V domains shown)
# VH: B1 VH with A6E, G54A, D75A, Y95F
# VL: B1 VL with S31Y, T43S, K45R
# B3: C8 (antibody, human IgG1, kappa, V domains shown)
# VH: B1 VH with Y35F, T58I, M93I, L101F
# VL: B1 VL with S31R, T43S, K45R
# B4: C20 (antibody, human IgG1, kappa, V domains shown)
# VH: B1 VH with A6E, Y32S, Y35C, G54A, S78N, S85G, M93V
# VL: B1 VL with S31R, V44I, F94S
# B5: C18 (antibody, human IgG1, kappa, V domains shown)
# VH: B1 VH with A6E, Y57F, T58I, Q82L, Y95F
# VL: B1 VL with S31R, E39G, K60T
# B6: C13 (antibody, human IgG1, kappa, V domains shown)
# VH: EVQLQQSGPELVKPGASVKISCKASGYTFTDYFMNWVKQSHGKSLEWIGDINPNNGSPNYNQKFKGRATLTVDKSSSTAYMELRSLTSEDSAVYYCASGYFDVWGTGTTVTVSS
# VL: DIVMTQSPSSLSVSAGEKVTMSCKSSQSLLNSGTQKNYLAWYQQKPGQPPKLLIYGASTRESGVPDRFTGSGSGTDFTLTISSVQAEDLAVYYCQNDHSYPWTFGGGTKLEIKR
# B7: C7 (antibody, human IgG1, kappa, V domains shown)
# VH: EVQLQQSGPELVKPGASVKISCKASGYTLTDYYMNWVKQSHGKSLEWIGDINPNNGGTNFNQKFKGKATLTIDKSSSTTYMELRSLTSEDSAVYYCASLFFDYWGQGTTLTVSS
# VL: B6 VL with T34N, V91L, D97A, Y100S, W102Y
# B8: C41 (antibody, human IgG1, kappa, V domains shown)
# VH: B7 VH with Y27N, L29F, M34I, N52E, F60Y, I72V, T79A, V93I, S98T, F100Y
# VL: B6 VL with T34N, W102F, G106S
# B9: C11 (antibody, human IgG1, kappa, V domains shown)
# VH: B6 VH with K38R, N52H, R67K, D73G, S98T
# VL: B6 VL with T34N
# B10: C4 (antibody, human IgG1, kappa, V domains shown)
# VH: B6 VH with N52I, G56D, R67K, S77N
# VL: B6 VL with T34N, Y38F, A57T
# B11: C3 (antibody, human IgG1, kappa, V domains shown)
# VH: QVQLQQSGPELVKPGASVKISCRSSGYTFTDYYINWVKQRPGQGLEWIGWIFPGSDYTYYNEKFKGKATLTVDKSSTTAYMLLSSLTSEDSAVYFCARDGGLRGPFDYWGQGTTLTVSS
# VL: DIQMTQSPSSLSASLGGKVTITCKASQDINKYIAWYQQKPGKGPRLLIHYTSTLQPGIPSRFSGSGSGRNSSFSISNLEPEDIATYYCLQYDNLHTFGGGTKLEIKR
# B12: C24 (antibody, human IgG1, kappa, V domains shown)
# VH: QVQLKQSGPGLVQPSQNLSITCTVSGFSLTGYGINWVRQSPGKGLEWLGVIWSGGNTEYNAAFRSRLSISKDTSKSQVFLKMNSLQADDTAIYSCARDSTGLYAMDYWGPGTSVTVSS
# VL: DLQMTQTTSSLSASLGDRVTISCRTSQDISNFLNWYQQKPDGPLKLLIYYTSRLHSGVPSRFSGSGSGTDYSLTISNLEQEDIATYFCQQGYMLPPTFGGGTKLEIKR
# B13: C14 (antibody, human IgG1, kappa, V domains shown)
# VH: QVQLQQPGAELVRPGTSVKLSCKASGNTFTSYWMHWVKQRPGQGHEWIGVIDASDSNTKYNQKFKGKATLTVDTSSSTAYMQLSSLTSEDSAVYYCARYYSGSSYGLDYWGQGTTLTVSS
# VL: DIQMTQTASSLSASLGDRVTISCRASQDISNYLNWYQQKPDGTVKLLIYYTSRLHSGVPSRFSGSGSGTDFSLTITHLEQEDIASYFCQQGNMFPPTFGGGTKLEIKR
# Target: T1, monkey antigen protein (monkey CD112R, …)
# Assay: ELISA, monkey antigen protein (as Example 6.1)
row,EC50,Binder
1,0.768 nM,B1
2,0.034 nM,B2
3,0.047 nM,B3
4,8.36 nM,B4
5,0.069 nM,B5
6,0.059 nM,B6
7,0.08 nM,B7
8,0.052 nM,B8
9,0.079 nM,B9
10,0.059 nM,B10
11,0.118 nM,B11
12,0.169 nM,B12
13,0.067 nM,B13

# Target: T2, human CD112R on antigen-specific CD8+ T …
# Assay: cell-based or functional assay
IFN-γ(pg/ml) at 0.5µg/ml antibody,IFN-γ(pg/ml) at 5µg/ml antibody,IFN-γ(pg/ml) at 50µg/ml antibody,Binder
608 pg/mL,678 pg/mL,824 pg/mL,B1
571 pg/mL,744 pg/mL,829 pg/mL,B2
722 pg/mL,783 pg/mL,819 pg/mL,B3
708 pg/mL,835 pg/mL,–,B4
748 pg/mL,802 pg/mL,–,B5
624 pg/mL,658 pg/mL,767 pg/mL,B6
818 pg/mL,837 pg/mL,–,B7
573 pg/mL,751 pg/mL,659 pg/mL,B8
676 pg/mL,747 pg/mL,617 pg/mL,B9
663 pg/mL,740 pg/mL,875 pg/mL,B10
535 pg/mL,633 pg/mL,755 pg/mL,B11
611 pg/mL,656 pg/mL,733 pg/mL,B12
619 pg/mL,674 pg/mL,759 pg/mL,B13

# Target: T3, human CD112R antigen protein …
# Assay: SPR (Biacore X100), antibody captured on Protein A chip, huCD112R-His as analyte, 1:1 Langmuir
row,Kd,Binder
1,2.9 nM,B1
2,0.567 nM,B2
3,0.397 nM,B3
4,0.114 nM,B4
5,0.206 nM,B5
6,0.0218 nM,B6
7,0.0576 nM,B7
8,0.022 nM,B8
9,0.0622 nM,B9
10,0.0141 nM,B10
11,0.181 nM,B11
12,0.0467 nM,B12
13,0.0687 nM,B13

# Target: T3, human CD112R antigen protein …
# Assay: ELISA, huCD112R-His coated on plate
row,EC50,Binder
1,0.155 nM,B1
2,0.043 nM,B2
3,0.046 nM,B3
4,2.27 nM,B4
5,0.069 nM,B5
6,0.065 nM,B6
7,0.034 nM,B7
8,0.033 nM,B8
9,0.056 nM,B9
10,0.032 nM,B10
11,0.046 nM,B11
12,0.048 nM,B12
13,0.052 nM,B13

# Target: T4, human CD112R on GS-J2C/CD112R effector …
# Assay: cell-based or functional assay
row,"EC50 (Blocking effects of the antibodies, reporter gene method)",Binder
1,0.024 µg/mL,B1
2,0.033 µg/mL,B2
3,0.026 µg/mL,B3
4,0.025 µg/mL,B4
5,0.034 µg/mL,B5
6,0.019 µg/mL,B6
7,0.031 µg/mL,B7
8,0.024 µg/mL,B8
9,0.021 µg/mL,B9
10,0.024 µg/mL,B10
11,0.04 µg/mL,B11
12,0.05 µg/mL,B12
13,0.052 µg/mL,B13
